# *1 amine or outer side, *2 acyl side, *3 side chain or, on linkers, in order; H or OH if unused. Where no end group is shown, it is not given here. Side-chain parts run from the residue outwards. [ ]: non-standard residue; d: D form. The star is where a group is joined. C20 diacid = O=C(O)CCCCCCCCCCCCCCCCCCC(=O)*; C18 diacid = O=C(O)CCCCCCCCCCCCCCCCC(=O)*; γGlu = O=C(O)[C@H](CCC(=O)[*:2])N[*:1]; AEEA = NCCOCCOCC(=O)O; Aib = CC(C)(N)C(=O)O
# B1: SEQ ID NO: 4 (peptide)
# peptide: Y[Aib]EGTFISDLSI[Aib]K([AEEA-AEEA-γGlu-C18 diacid])DRIHQ[Aib]EFIEWLLAQGPSSGAPPPS-NH2
# modifications: N-terminus assumed
# SMILES: CC[C@H](C)[C@H](NC(=O)[C@H](CCCNC(=N)N)NC(=O)[C@H](CC(=O)O)NC(=O)[C@H](CCCCNC(=O)COCCOCCNC(=O)COCCOCCNC(=O)CC[C@H](NC(=O)CCCCCCCCCCCCCCCCC(=O)O)C(=O)O)NC(=O)C(C)(C)NC(=O)[C@@H](NC(=O)[C@H](CO)NC(=O)[C@H](CC(C)C)NC(=O)[C@H](CC(=O)O)NC(=O)[C@H](CO)NC(=O)[C@@H](NC(=O)[C@H](Cc1ccccc1)NC(=O)[C@@H](NC(=O)CNC(=O)[C@H](CCC(=O)O)NC(=O)C(C)(C)NC(=O)[C@@H](N)Cc1ccc(O)cc1)[C@@H](C)O)[C@@H](C)CC)[C@@H](C)CC)C(=O)N[C@@H](Cc1c[nH]cn1)C(=O)N[C@@H](CCC(N)=O)C(=O)NC(C)(C)C(=O)N[C@@H](CCC(=O)O)C(=O)N[C@@H](Cc1ccccc1)C(=O)N[C@H](C(=O)N[C@@H](CCC(=O)O)C(=O)N[C@@H](Cc1c[nH]c2ccccc12)C(=O)N[C@@H](CC(C)C)C(=O)N[C@@H](CC(C)C)C(=O)N[C@@H](C)C(=O)N[C@@H](CCC(N)=O)C(=O)NCC(=O)N1CCC[C@H]1C(=O)N[C@@H](CO)C(=O)N[C@@H](CO)C(=O)NCC(=O)N[C@@H](C)C(=O)N1CCC[C@H]1C(=O)N1CCC[C@H]1C(=O)N1CCC[C@H]1C(=O)N[C@@H](CO)C(N)=O)[C@@H](C)CC
# notes: Exendin-4 derived synthetic lipidated peptide of formula I
# B2: SEQ ID NO: 7 (peptide)
# peptide: Y[Aib]EGTFISDLSI[Aib]K([AEEA-AEEA-γGlu-C20 diacid])DRIHQ[Aib]EFIEWLLAQGPSSGAPPPS-NH2
# modifications: N-terminus assumed
# SMILES: CC[C@H](C)[C@H](NC(=O)[C@H](CCCNC(=N)N)NC(=O)[C@H](CC(=O)O)NC(=O)[C@H](CCCCNC(=O)COCCOCCNC(=O)COCCOCCNC(=O)CC[C@H](NC(=O)CCCCCCCCCCCCCCCCCCC(=O)O)C(=O)O)NC(=O)C(C)(C)NC(=O)[C@@H](NC(=O)[C@H](CO)NC(=O)[C@H](CC(C)C)NC(=O)[C@H](CC(=O)O)NC(=O)[C@H](CO)NC(=O)[C@@H](NC(=O)[C@H](Cc1ccccc1)NC(=O)[C@@H](NC(=O)CNC(=O)[C@H](CCC(=O)O)NC(=O)C(C)(C)NC(=O)[C@@H](N)Cc1ccc(O)cc1)[C@@H](C)O)[C@@H](C)CC)[C@@H](C)CC)C(=O)N[C@@H](Cc1c[nH]cn1)C(=O)N[C@@H](CCC(N)=O)C(=O)NC(C)(C)C(=O)N[C@@H](CCC(=O)O)C(=O)N[C@@H](Cc1ccccc1)C(=O)N[C@H](C(=O)N[C@@H](CCC(=O)O)C(=O)N[C@@H](Cc1c[nH]c2ccccc12)C(=O)N[C@@H](CC(C)C)C(=O)N[C@@H](CC(C)C)C(=O)N[C@@H](C)C(=O)N[C@@H](CCC(N)=O)C(=O)NCC(=O)N1CCC[C@H]1C(=O)N[C@@H](CO)C(=O)N[C@@H](CO)C(=O)NCC(=O)N[C@@H](C)C(=O)N1CCC[C@H]1C(=O)N1CCC[C@H]1C(=O)N1CCC[C@H]1C(=O)N[C@@H](CO)C(N)=O)[C@@H](C)CC
# notes: as for B1
# Assays:
# [1] = target: T1, human GIP receptor (human, UniProt P48546 22-466); experiment: cell-based or functional assay
# T1 sequence (looked up): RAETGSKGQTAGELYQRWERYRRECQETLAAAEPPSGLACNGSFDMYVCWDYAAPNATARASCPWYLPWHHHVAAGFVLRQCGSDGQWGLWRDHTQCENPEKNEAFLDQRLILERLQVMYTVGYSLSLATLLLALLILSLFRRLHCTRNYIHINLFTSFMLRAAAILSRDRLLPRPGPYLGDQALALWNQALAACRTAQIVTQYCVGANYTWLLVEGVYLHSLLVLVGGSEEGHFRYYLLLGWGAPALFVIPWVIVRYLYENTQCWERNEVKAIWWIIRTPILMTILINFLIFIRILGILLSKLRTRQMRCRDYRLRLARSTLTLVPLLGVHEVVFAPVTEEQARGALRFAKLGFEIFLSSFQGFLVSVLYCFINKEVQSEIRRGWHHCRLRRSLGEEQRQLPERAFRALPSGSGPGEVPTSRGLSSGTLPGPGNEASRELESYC
# [2] = target: T2, human GLP-1 receptor (human, UniProt P43220 24-463); experiment: cell-based or functional assay
# [3] = target: T1, human GIP receptor; experiment: cell-based or functional assay; remark: listed apart in the source
# [4] = target: T2, human GLP-1 receptor; experiment: displacement of [125I]GLP-1 from hGLP-1R HEK-293 membranes, SPA
Binder,"EC50 hGIPR 0% HSA, cAMP in HEK-293 cells [1] [nM]","EC50 hGIPR 0.1% HSA, cAMP in HEK-293 cells [1] [nM]","EC50 hGLP-1R 0% HSA, cAMP in HEK-293 cells [2] [nM]","hGIPR EC50, cAMP in human adipocytes [3] [nM]","hGIPR Emax, cAMP in human adipocytes [3] [%]",IC50 [4] [nM]
B1,0.00012,0.00088,> 10,0.5,116,144
B2,0.00017,0.00286,> 10,0.3,121,105
